Assay [1] concerns the target T1, A isoform of the insulin receptor (UniProt P06213-2 28-1370, limits assumed).
T1 construct: also called IR-A
The assay is described as follows: receptor binding affinity, method not described; reference: human insulin; data not shown.

Substrate in assay [2]: B isoform of the insulin receptor (UniProt P06213)
As to the kind of experiment: receptor binding affinity, method not described; reference: wild type human insulin.

Several values for one entry are separate records, joined by “and”; a condition that tells them apart may be missing. Equal entries are not always repeated. Positions of bridges follow the written chain, without caps; N, C: chain ends. No end group written: not given here.

B1: 4SS 81-04 (SCI-2; 57-mer single-chain insulin analogue with fourth disulfide bridge, cystine B4-A10) (ligand)
chain: FVNCHLCGSHLVEALYLVCGERGFFYTDPTEEGPRRGIVEQCCHSCCSLEQLENYCN
modifications: disulfide 4-46; also: three canonical disulfides, pairing not given here
notes: Single polypeptide chain (B domain, 6-residue C domain EEGPRR, A domain), expressed in Pichia pastoris; Cys at B4 and A10 form a fourth disulfide bridge beside the three canonical ones; also called 57mer SCI-2
Take B1: the “affinity relative to human insulin” value in assay [1] was found to be 120 percent. Moreover, the fold reduction of affinity relative to wild type human insulin in assay [2] was 5 fold and 10 fold.

The record behind these values is patent US20200140517A1 (CASE WESTERN RESERVE UNIVERSITY, published 2020).
